This note sets out measurements from patent US12534533B2, “Anti-chemokine like receptor 1 humanized antibodies and their therapeutic applications” (OSE IMMUNOTHERAPEUTICS, priority 2019, dated 2026).

Assay [1] relates to Hepa 1.6 cells. As to the kind of experiment: Hepatocarcinoma model (HCC), orthotopic murine hepatoma. It is filed as in vivo, mice. The settings on record: anti-CMKLR1 0.8 mg/kg three times per week, anti-PD1 8 mg/kg, 2 weeks; followed sixty days; FIG. 20. The method, then: FIG. 20. Effect of an anti-CMKLR1 antibody on a Hepatocarcinoma mice model (HCC model). Anti-tumor effect of anti-CMKLR1 antibody (2G1, 0.8 mg/kg) i.p. administration three times a week for 2 weeks in combination (▴) or not (●) with two injections on day 4 and 8 of anti-PD1 mAb (RMP1-14 clone, 8 mg/kg) or with injections (twice a week) of anti-PD-1 antibody alone (Δ). Mice have been treated during 2 weeks in an orthotropic model of murine hepatoma (2.5.10^6 of Hepa 1.6 cells injected through the portal vein on day 0). Isotype control antibody was used at 0.8 mg/kg three times a week for 2 weeks. Mice response were considered partial (PR) when mice survive few days to 1 month after stop of treatment or complete (CR) when mice survive over 1 month or cured when they survive three times longer than the time necessary to all control mice dye.
Method: Mice were anesthetized with a cocktail of xylazine/ketamine. After a laparotomy, tumoral Hepa 1.6 cells were injected in PBS through the portal vein (2.5·10^6 cells/100 μL) in PBS. The treatment was started 4 days after tumor injection. The anti-CMKLR1 antibody (2G1clone) and the hIgG1 istotype control were injected at 0.8 mg/kg three times per week during 2 weeks. The anti-PD1 monoclonal antibody was injected twice a week during 2 weeks intraperitoneally in PBS (8 mg/kg). […]

For assay [2], the target named is T1, CMKLR1 receptor (CHO-K1 CMKLR1 cells) (Homo sapiens, UniProt Q99788).
T1 construct: host or cells: CHO-K1
T1 sequence (Q99788 1-373): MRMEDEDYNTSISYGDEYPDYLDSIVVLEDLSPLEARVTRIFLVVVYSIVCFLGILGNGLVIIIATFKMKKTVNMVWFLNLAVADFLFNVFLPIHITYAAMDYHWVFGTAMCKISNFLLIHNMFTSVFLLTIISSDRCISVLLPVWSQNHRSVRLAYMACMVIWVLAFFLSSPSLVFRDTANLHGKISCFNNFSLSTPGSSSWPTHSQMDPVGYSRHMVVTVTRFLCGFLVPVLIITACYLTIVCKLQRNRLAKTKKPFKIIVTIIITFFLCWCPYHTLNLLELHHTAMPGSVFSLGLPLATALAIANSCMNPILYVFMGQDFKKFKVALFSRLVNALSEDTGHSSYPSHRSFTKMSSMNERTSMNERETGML
As to the kind of experiment: competition assay, Chemerin-dependent beta-arrestin recruitment by CMKLR1 receptor. It is filed as cell-based. The settings on record: antibody 1 μM to 1 nM, Chemerin 2 or 6 nM; FIG. 18B. The method, then: The day before the assay, CHO-K1 CMKLR1 cells (Discover'X ref 93-0313E2) were plated in pre-warmed cell reagent then plated in a 96-well plate at 100 μl/well of cells as (Discover'X ref 15-103) and incubated […] at 37° C., in a 5% CO2 humidified incubator. The anti-CMLKR1 antibody was diluted (22× in 7-point series of 3-fold dilutions from 1 μM to 1 nM) and cells were incubated 30 min at 37° C. with the antibody. […] The luminescence was measured after Working Detection Solution addition to the cells with a plate reader with 0.5 s integration.
On the technique in general: Activated receptors often draw arrestin, which recruitment assays turn into a signal.

Assay [3] has as its system Caspase-3 in PMN from healthy volunteers. As to the kind of experiment: Caspase-3 expression in PMN by Western Blot. It is filed as cell-based, human. The settings on record: coated Ab at 10 μg/mL; 4 h, 6 h, 11 h; FIG. 26B. As for the experimental part:
Neutrophils were isolated from blood of healthy volunteers and cultured for 24 h (Mortality analysis), or 4 h, 6 h, 11 h (Caspase-3 assay), or 5 h (ROS assay) on coated Iso ctrl (cross), chimeric anti-ChemR23 2G1 (square) or different humanized versions of the 2G1 (diamonds). Mortality of PMN was analyzed by incubating PMN with specific markers of the mortality and viability and then counted by picture analysis.
PMN from healthy volunteers were incubated in culture medium with coated Ab at 10 μg/mL for different times and collected for Caspase-3 staining analyzed by Western Blot. The intensity of Capase-3 expression was calculated on WB.
(In general: In western blotting, separated proteins are transferred to a membrane and probed.)

Assay [4] has as its system peritonitis induced by Zymosan A. As to the kind of experiment: peritonitis model (Zymosan A). It is filed as in vivo, mice. The settings on record: vs isotype control. The method, then:
FIG. 7. Effect of an anti-CMKLR1 antibody on a mice peritonitis model. Preventive injection of anti-CMKLR1 was performed before Zymosan A injection (1 mg per mouse in 1 mL): RvE1 (1 μg per mouse) (●), 2G1 antibody (10 μg per mouse) (□) or isotype control antibody (x). A. PMN numbered during the first 50 hours after Zymosan A injection. B. Macrophages numbered during the first 50 hours after Zymosan A injection. C. Resolution index.
Common peritonitis is induced by intraperitoneal injection of Zymosan A® (1 mg per mouse in 1 mL). Preventive injection of anti-CMKLR1 was performed 5 minutes before Zymosan A injection: RvE1 (1 μg per mouse), 2G1 antibody (10 μg per mouse). Murine peritoneal polymorphonuclear neutrophil (PMN) and macrophages were collected at 2-4-8-16-24 and 48 h after Zymosan A injection and numbered by flow cytometry analysis to determinate the resolution index (Bannenberg et al., 2005).

Assay [5] concerns MC38 cells. As to the kind of experiment: MC38 colon carcinoma model. It is filed as in vivo, mice. The conditions noted are these: 20 μg/injection i.p. for 3 weeks; vs isotype control; FIG. 9D. The method, then:
FIG. 9. Effect of an anti-CMKLR1 antibody on 2 different colon carcinoma mice models. Two mice models were studied, and animals received isotype control antibody (3G8) (x) or anti-CMKLR1 (2G1) (□) at 20 μg/injection intraperitoneally for 3 weeks. A-C. Results in the CT26 colon carcinoma model comparing single treatment with p84 (A) and 2G1 (B) with combined therapy with both antibodies (C). D: Results in the MC38 colon carcinoma model.
8-week old C57bl/6J male mice were anesthetized with 3% of isoflurane. Mice were shaved on the flank and MC38 cells (0.5·10≢cells/mouse) cell lines were injected subcutaneously with an insulinic syringe (30 Gauges) in 50 μL of PBS. Another model was used, in which 8-week old Balb/c male mice were anesthetized with 3% of isoflurane. Mice were shaved on the flank and CT26 cells (1.10≢cells/mouse) were injected subcutaneously with an insulinic syringe (30 Gauges) in 50 μL of PBS.
The agonistic anti-CMKLR1 antibody (2G1) or an anti-SIRPa antibody (p84-anti-mouse SIRPa from Merck Millipore) (SIRPa is a new checkpoint inhibitor) were injected once a week (20 μg/injection) intraperitoneally for 3 weeks starting at d4 after tumor inoculation alone or combined.

B1: 2G1: parental chimeric anti-CMKLR1 antibody: heavy chain variable domain SEQ ID No. 37, light chain variable domain SEQ ID No. 49 (antibody, V domains shown)
VH: EVQLVASGGGLVQPGGSLKLSCAASGFTFSSYGMSWVRQTPDRRLELVATINRYGGSTYYPDSVKGRFTISRDNAKNTLYLQMSSLKSEDTAMYYCPRLIYYGNEGDSWGQGTTLTVSS
VL: QIVLTQSPAIMSASPGEKVTMTCSASSSVSFMHWYQQKSGTSPKRWIYDTTKLTSGVPARFSGSGSGTFYSLTISSMEAEDAATYYCQQWNSKPPLTFGPGTKLELKR
Turning to B1, in assay [1], the “survival rate (treated animals with prolonged survival)” value is 15%. Also, in assay [2], the “chemerin-dependent activation of the beta-arrestin” value is “did not significantly modify chemerin-dependent activation of the beta-arrestin”. Further, in assay [3], the caspase-3 cleavage entry was “increases caspase-3 cleavage”. For the same molecule, in assay [4] (first 50 hours after Zymosan A, FIG. 7A), the PMNs number entry is given as “slightly less”. Moreover, in assay [4] (first 50 hours after Zymosan A, FIG. 7B), the Macrophages number entry was “slightly less”. Besides, the resolution index entry in assay [4] (FIG. 7C) is reported as “better resolution index”. Moreover, the tumor growth result in assay [5] was “did show an efficacy in the inhibition of the tumor growth”.
